Reference: patent US20200132689

Biological target: panel of anti-NAMPT murine monoclonal antibodies (mAbs)

B1: nicotinamide phosphoribosyltransferase (NAMPT) (protein)
chain: MNPAAEAEFNILLATDSYKVTHYKQYPPNTSKVYSYFECREKKTENSKLRKVKYEETVFYGLQYILNKYLKGKVVTKEKIQEAKDVYKEHFQDDVFNEKGWNYILEKYDGHLPIEIKAVPEGFVIPRGNVLFTVENTDPECYWLTNWIETILVQSWYPITVATNSREQKKILAKYLLETSGNLDGLEYKLHDFGYRGVSSQETAGIGASAHLVNFKGTDTVAGLALIKKYYGTKDPVPGYSVPAAEHSTITAWGKDHEKDAFEHIVTQFSSVPVSVVSDSYDIYNACEKIWGEDLRHLIVSRSTQAPLIIRPDSGNPLDTVLKVLEILGKKFPVTENSKGYKLLPPYLRVIQGDGVDINTLQEIVEGMKQKMWSIENIAFGSGGGLLQKLTRDLLNCSFKCSYVVTNGLGINVFKDPVADPNKRSKKGRLSLHRTPAGNFVTLEEGKGDLEEYGQDLLHTVFKNGKVTKSYSFDEIRKNAQLNIELEAAHH
- NAMPT-induced NFκB phosphorylation: highly efficacious in significantly reducing NAMPT-induced NFκB phosphorylation
